Here are results for nine substances from paper PMC3812903 (Biochemistry, 2013).

pKd: −log10 of the molar value. Like-named read-outs stand apart in the source and are kept apart here.

The target of experiment [1] is DmsD (His6T7::DmsD construct) (E. coli) (UniProt P69853). Briefly: ITC.
For experiment [2], the target named is DmsAL21-41 (DmsA twin-arginine leader peptide, residues 21-41) (UniProt P18775). Briefly: ITC. Particulars: pH 8.0; 30 °C (303.15 K); 100 mM NaCl; 25 mM Tris-HCl (pH 8.0).
Experiment [3] concerns the target DmsAL15-41 KK (DmsA leader peptide residues 15-41, twin arginines changed to lysines) R16K;R17K (UniProt P18775). Nature of the experiment: ITC. Particulars: pH 8.0; 30 °C (303.15 K); 100 mM NaCl; 25 mM Tris-HCl (pH 8.0).
Experiment [4] addresses DmsAL17-41 (DmsA twin-arginine leader peptide, residues 17-41) (UniProt P18775). Nature of the experiment: ITC. Particulars: pH 8.0; 30 °C (303.15 K); 100 mM NaCl; 25 mM Tris-HCl (pH 8.0).
Experiment [5] concerns the target DmsAL15-41 (DmsA twin-arginine leader peptide, residues 15-41) (UniProt P18775). Nature of the experiment: ITC. Particulars: pH 8.0; 30 °C (303.15 K); 100 mM NaCl; 25 mM Tris-HCl (pH 8.0).
In the next experiment the target is NarJ. Particulars: cited from earlier work.
The next experiment deals with NarJ (Escherichia coli) (UniProt P0AF26). Particulars: cited from earlier work.
Chain of UniProt P0AF26 (P0AF26 whole entry): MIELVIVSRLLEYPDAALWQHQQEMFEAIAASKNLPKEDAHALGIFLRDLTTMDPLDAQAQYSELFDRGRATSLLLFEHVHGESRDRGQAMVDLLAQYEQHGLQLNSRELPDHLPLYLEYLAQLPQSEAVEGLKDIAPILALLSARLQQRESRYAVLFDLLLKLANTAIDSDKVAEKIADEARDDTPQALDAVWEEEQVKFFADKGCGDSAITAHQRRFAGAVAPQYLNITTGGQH
The target of experiment [6] is DmsD (Escherichia coli) (UniProt P69853). Particulars: cited from earlier work.
The target is the same in experiment [7]. Particulars: cited from earlier work. This is another data set of the same source.
The next experiment has as its target TorD (Escherichia coli) (UniProt P36662). Particulars: cited from earlier work.
Chain of UniProt P36662 (P36662 whole entry): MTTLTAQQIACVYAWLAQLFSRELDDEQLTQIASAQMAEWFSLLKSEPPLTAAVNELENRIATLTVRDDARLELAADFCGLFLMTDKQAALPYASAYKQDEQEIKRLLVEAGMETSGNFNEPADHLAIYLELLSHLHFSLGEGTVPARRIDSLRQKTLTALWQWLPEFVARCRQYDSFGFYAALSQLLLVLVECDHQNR

One may read the pKd as the Kd on a negative log10 scale, so that one unit is a factor of ten. Broadly, the stoichiometry N is a count of units in the complex or per binding partner. In experiment [1], “DmsAL_(21–41) (from UniProt P18775 21-41) (peptide)” gave a Ka of 260000 M⁻¹, a pKd of 5.41, a dH of -4.3 kcal/mol and a stoichiometry N of 1.14.

For the substance “DmsAL_(17–41) (from UniProt P18775 17-41) (peptide)”, in experiment [1], the pKd was 5.68, the dH was -9.5 kcal/mol and the stoichiometry N is 1.04.

As for “DmsD (Tat proofreading chaperone / redox enzyme maturation protein)”, the ΔH (apparent, Tris) in experiment [2] was -4.3 kcal/mol; in experiment [3], -10 kcal/mol; in [4] it was -9.5 kcal/mol; in [5], -11.7 kcal/mol.

In experiment [1], “DmsAL_(15–41 KK) (from UniProt P18775 15-41) (peptide)” had a pKd of 5.54 and a stoichiometry N of 1.09.

Consider “DmsAL_(15–41) (from UniProt P18775 15-41) (peptide)”, for which, in experiment [1], the Ka stood at 600000 M⁻¹, the pKd was 5.77, the dH was -11.7 kcal/mol and the stoichiometry N is 1.04.

As to “15 N-terminal residues of NarG: 15 amino-terminal residues of NarG, contain a remnant RR motif (MSKFLDRFRYFKQKG; UniProt P09152 1-15, looked up, fragment)”, the pKd on NarJ is around 7.00.

In the case of “NarG N-terminal peptide 1-15 (from UniProt P09152)”, the pKd in the experiment with NarJ (Escherichia coli) is 7.00.

In the case of “DmsA leader peptide 1-43 (from UniProt P18775)”, the pKd was 7.22 in the experiment with DmsD (Escherichia coli) [6] and 6.70 with DmsD (Escherichia coli) [7].

For “TorA leader peptide (from UniProt P33225)”, the pKd with TorD (Escherichia coli) is 5.74.
